Measurements: paper PMC6767918 (Science (New York, N.Y.), 2019)

Biological target: T1, SidJ^[change] (SidJ 59–851) (L. pneumophila, UniProt Q5ZTK6 59-851)
T1 sequence: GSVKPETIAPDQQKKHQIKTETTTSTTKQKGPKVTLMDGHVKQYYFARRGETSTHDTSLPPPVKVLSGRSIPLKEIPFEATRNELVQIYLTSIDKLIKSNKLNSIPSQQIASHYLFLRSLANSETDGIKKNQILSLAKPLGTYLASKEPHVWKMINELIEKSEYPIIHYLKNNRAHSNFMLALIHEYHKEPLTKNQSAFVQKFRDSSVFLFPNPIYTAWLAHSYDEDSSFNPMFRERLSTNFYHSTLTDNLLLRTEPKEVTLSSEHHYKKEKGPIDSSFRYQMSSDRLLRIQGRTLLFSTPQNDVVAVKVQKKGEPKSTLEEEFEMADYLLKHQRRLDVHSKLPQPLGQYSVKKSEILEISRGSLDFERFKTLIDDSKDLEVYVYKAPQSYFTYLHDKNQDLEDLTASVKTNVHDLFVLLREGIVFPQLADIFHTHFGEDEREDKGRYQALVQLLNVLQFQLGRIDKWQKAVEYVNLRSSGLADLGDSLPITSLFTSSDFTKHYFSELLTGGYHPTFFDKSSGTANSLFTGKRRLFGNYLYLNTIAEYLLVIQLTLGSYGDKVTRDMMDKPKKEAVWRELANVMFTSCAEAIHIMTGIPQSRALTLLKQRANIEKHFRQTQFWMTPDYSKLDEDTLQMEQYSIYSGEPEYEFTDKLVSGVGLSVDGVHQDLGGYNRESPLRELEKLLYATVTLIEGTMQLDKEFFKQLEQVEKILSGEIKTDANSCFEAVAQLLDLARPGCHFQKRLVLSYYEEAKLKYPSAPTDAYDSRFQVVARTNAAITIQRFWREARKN
Experiment: crystal structure

B1: yeast CaM (yCaM) (natural protein)
chain: not shown
B1: binds.
